Patent US5851983, “Elastase inhibitory polypeptide and process for production thereof by recombinant gene technology” (Teijin Limited, dated 1998)
Where two headings read alike, the source gives them in different places. No end group written: not given here.

B1: (Asn^55 -Ala^107) SLPI fragment polypeptide (other)
chain: NPTRRKPGKCPVTYGQCLMLNPPNFCEMDGQCKRDLKCCMGMCGKSCVSPVKA
modifications: also: intramolecular disulfides in refolded form, pairing not given here
B2: Human secretory leukoprotease inhibitor (SLPI) (other)
chain: SGKSFKAGVCPPKKSAQCLRYKKPECQSDWQCPGKKRCCPDTCGIKCLDPVDTPNPTRRKPGKCPVTYGQCLMLNPPNFCEMDGQCKRDLKCCMGMCGKSCVSPVKA

Legend:
[1] = target: Calf pancreatic chymotrypsin (Sigma) (calf (bovine), UniProt P00766); assay: cell-based or functional assay
[2] = target: Porcine pancreatic elastase (Sigma) (porcine, UniProt P00772); assay: cell-based or functional assay
Human plasma thrombin = Human plasma thrombin (human, UniProt P00734); assay: cell-based or functional assay
Human plasma plasmin = Human plasma plasmin (human, UniProt P00747); assay: cell-based or functional assay
Human plasma kallikrein = Human plasma kallikrein (human, UniProt P03952); assay: cell-based or functional assay
[3] = target: T1, Polymorphonuclear leukocyte elastase from human sputum (EPC Co.; Funakoshi Yakuhin) (human, UniProt P08246); assay: enzyme inhibition with chromogenic substrate, Ki by the Dixon method
Procedure: (§1) To each well of a 96-well ELISA microplate were added 140 μl of the above-mentioned buffer, 20 μl of a test solution, and 20 μl of the enzyme solution, and the mixture was stirred at 37° C. for 30 minutes. Next, 20 μl of the substrate solution was added to the well, the mixture was stirred at 37° C. for one hour to develop same, and the absorbance at 405 nm was measured.
(§2) Moreover, an inhibitory constant Ki of the present (Asn^55-Ala^107) SLPI was calculated on the basis of the above data by a method of Dixon, M. and Webb, E. C. (1979), Enzyme, Longman or a method of Henderson, P. J. F. (1972) Biochem. J., 127, 321–333.

[4] = target: T2, Calf pancreatic trypsin (Sigma) (calf (bovine), UniProt P00760); assay: as above
Procedure: as §1, §2

[5] = target: T1, Polymorphonuclear leukocyte elastase …; assay: enzyme inhibition with chromogenic substrate, Ki by the Henderson method
Procedure: as §1, §2

[6] = target: T2, Calf pancreatic trypsin (Sigma); assay: as above
Procedure: as §1, §2

[7] = target: T3, Bovine spleen chymotrypsin (Sigma) (bovine, UniProt P00766); assay: cell-based or functional assay
[8] = target: T4, Porcine spleen elastase (Sigma) (porcine, UniProt P00772); assay: cell-based or functional assay
[9] = target: T5, Human cathepsin G (EPC Co., Funakoshi Yakuhin) (human, UniProt P08311); assay: cell-based or functional assay
T5 sequence: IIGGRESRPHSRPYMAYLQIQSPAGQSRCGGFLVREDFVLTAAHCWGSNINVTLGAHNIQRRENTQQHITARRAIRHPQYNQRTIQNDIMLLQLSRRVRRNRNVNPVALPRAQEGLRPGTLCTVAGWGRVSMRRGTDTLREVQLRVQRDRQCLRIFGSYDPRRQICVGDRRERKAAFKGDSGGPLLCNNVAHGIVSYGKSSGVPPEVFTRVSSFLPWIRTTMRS

[10] = target: T3, Bovine spleen chymotrypsin (Sigma); assay: cell-based or functional assay; remark: listed apart in the source
[11] = target: T4, Porcine spleen elastase (Sigma); assay: cell-based or functional assay; remark: listed apart in the source
[12] = target: T5, Human cathepsin G (EPC Co., Funakoshi …); assay: cell-based or functional assay; remark: listed apart in the source
[13] = target: T1, Polymorphonuclear leukocyte elastase …; assay: enzyme inhibition; method not described
[14] = target: T6, Bovine spleen trypsin (Sigma) (bovine, UniProt P00760); assay: enzyme inhibition with Bz-Arg-pNA, Ki by the Henderson method
Procedure: To wells of an ELISA 96-well microtiter plate, were added 120 μl of the buffer, 20 μl of a sample solution of (Arg^59-Ala^107) SLPI obtained in Example 23, and 20 μl of the enzyme solution in this order, an the mixture was reacted at 37° C. for 1 hour. Next, 20 μl of the substrate was added to develop at 25° C. Absorption of the developed color was measured at 405 nm. As a control, SLPI was used.

[15] = target: T6, Bovine spleen trypsin (Sigma); assay: as above; remark: listed apart in the source
Procedure: (§3) To wells of an ELISA 96-well microtiter plate, were added 120 μl of the buffer, 20 μl of a sample solution of (Arg^55-Ala^107) SLPI obtained in Example 25, and 20 μl of the enzyme solution in this order, an the mixture was reacted at 37° C. for 1 hour. Next, 20 μl of the substrate was added to develop at 25° C. Absorption of the developed color was measured at 405 nm. As a control, SLPI was used.

[16] = target: T1, Polymorphonuclear leukocyte elastase …; assay: enzyme inhibition with MeO-Suc-Ala-Ala-Pro-Val-pNA, Ki by the Henderson method
[17] = target: T1, Polymorphonuclear leukocyte elastase …; assay: as above; remark: listed apart in the source
Procedure: as §3

[18] = target: T5, Human cathepsin G (EPC Co., Funakoshi …); assay: cell-based or functional assay; remark: listed apart in the source

Row | Binder | IC50 [7] | IC50 [8] | IC50 [9] | IC50 [10] | IC50 [11] | IC50 [12] | Ki [14] | Ki [15] | Ki [16] | Ki [17] | also measured
1 | B1 |  |  |  |  |  |  |  |  |  |  | concentration of inhibitory protein which exhibits a 50% inhibition [1]: 10 nM; concentration of inhibitory protein which exhibits a 50% inhibition [2]: 200 nM; concentration of inhibitory protein which exhibits a 50% inhibition (Human plasma thrombin): > 2 µM; concentration of inhibitory protein which exhibits a 50% inhibition (Human plasma plasmin): > 2 µM; concentration of inhibitory protein which exhibits a 50% inhibition (Human plasma kallikrein): > 2 µM; Ki [3]: 0.03 nM; Ki [4]: 60 nM; Ki [5]: 0.2 nM; Ki [6]: 20 nM
2 | B2 | 7 nM | 13000 nM | 5.5 nM | 7 nM | 13000 nM | 5.5 nM | 33 nM | 33 nM | 0.08 nM | 0.08 nM | Ki [13]: 0.25 nM
3 | RKPGKCPVTYGQCLMLNPPNFCEMDGQCKRDLKCCMGMCGKSCVSPVKA (other) [(Arg^59 -Ala^107) SLPI] | 5.8 nM | 11000 nM | 8 nM |  |  |  | 1100 nM |  | 0.08 nM |  | IC50 value [18]: 11 nM
4 | RRKPGKCPVTYGQCLMLNPPNFCEMDGQCKRDLKCCMGMCGKSCVSPVKA (other) [(Arg^58 -Ala^107) SLPI] |  |  |  | 6.8 nM | 23000 nM | 8 nM |  | 1100 nM |  | 0.09 nM | 
